Target: actin filaments (skeletal muscle) (Gallus gallus), P68139
Settings: modification not given

## MGVADLIKKFESISKEE [mEGFP-Lifeact]
  Kd: 9.3 µM
